# T1: Cμ2 (μ2 residues 160 to 435), P84092
# T1 chain: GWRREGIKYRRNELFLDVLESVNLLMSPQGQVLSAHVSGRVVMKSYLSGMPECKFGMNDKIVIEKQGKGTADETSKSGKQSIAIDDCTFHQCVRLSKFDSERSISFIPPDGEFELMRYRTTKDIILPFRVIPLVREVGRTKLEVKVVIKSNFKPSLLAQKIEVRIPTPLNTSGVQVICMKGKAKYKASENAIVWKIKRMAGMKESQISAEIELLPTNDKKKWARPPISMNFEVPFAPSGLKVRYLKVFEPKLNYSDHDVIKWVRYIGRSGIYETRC
# Target: T1, Cμ2 (μ2 residues 160 to 435), P84092
# Assay: ITC
# Conditions: chain shown with the change;; parent: 25 ± 1 µM
row,Kd [µM],Binder
1,110,"NIPDVDAAGYSIAPETNQNDTKENHFYSSSDSDSEDEEPKKYR [FCHO2-N1+N2 (ITC), Q0JRZ9-1 E320A; E321A; K326A]"
2,54,"FCHO2-N1+N2 (ITC), Q0JRZ9-1 Y340S (protein) NIPDVDEEGYSIKPETNQNDTKENHFSSSSDSDSEDEEPKKYRIEIKPMHPNNSHHTMASLDELKVSIGNITLSPAISRHS"
